Results: paper PMC11239674
Numbering of substitutions follows the chain as printed. pKd: −log10 of the molar value.

Assays:
Test in all cases: MST
[1] = tested on: AtGRP7 (Arabidopsis thaliana); conditions: MST: 25 mM Tris-HCl pH 8.0, 150 mM NaCl, 1 mM DTT, 0.1 mg/ml BSA; 20 nM Cy5-RNA; protein titrated from 50-75 uM; about 2 min incubation; temperature not stated
[2] = tested on: AtGRP7short (Arabidopsis thaliana); conditions: MST: 25 mM Tris-HCl pH 8.0, 150 mM NaCl, 1 mM DTT, 0.1 mg/ml BSA; 20 nM Cy5-RNA; protein titrated from 50-75 uM; about 2 min incubation; temperature not stated
[3] = tested on: AtBnGRP7 (Arabidopsis thaliana / Brassica napus chimera); conditions: MST: 25 mM Tris-HCl pH 8.0, 150 mM NaCl, 1 mM DTT, 0.1 mg/ml BSA; 20 nM Cy5-RNA; protein titrated from 50-75 uM; about 2 min incubation; temperature not stated
[4] = tested on: AtGRP7StoE (Arabidopsis thaliana); conditions: MST: 25 mM Tris-HCl pH 8.0, 150 mM NaCl, 1 mM DTT, 0.1 mg/ml BSA; 20 nM Cy5-RNA; protein titrated from 50-75 uM; about 2 min incubation; temperature not stated
[5] = tested on: AtGRP7StoG (Arabidopsis thaliana); conditions: MST: 25 mM Tris-HCl pH 8.0, 150 mM NaCl, 1 mM DTT, 0.1 mg/ml BSA; 20 nM Cy5-RNA; protein titrated from 50-75 uM; about 2 min incubation; temperature not stated
[6] = tested on: AtGRP7YtoG (Arabidopsis thaliana); conditions: MST: 25 mM Tris-HCl pH 8.0, 150 mM NaCl, 1 mM DTT, 0.1 mg/ml BSA; 20 nM Cy5-RNA; protein titrated from 50-75 uM; about 2 min incubation; temperature not stated
[7] = tested on: BnGRP7 (Brassica napus); conditions: MST: 25 mM Tris-HCl pH 8.0, 150 mM NaCl, 1 mM DTT, 0.1 mg/ml BSA; 20 nM Cy5-RNA; protein titrated from 50-75 uM; about 2 min incubation; temperature not stated
[8] = tested on: eYFP-AtGRP7RGG (Arabidopsis thaliana); conditions: MST: 25 mM Tris-HCl pH 8.0, 150 mM NaCl, 1 mM DTT, 0.1 mg/ml BSA; 20 nM Cy5-RNA; protein titrated from 50-75 uM; about 2 min incubation; temperature not stated
[9] = biological target: T1, AtBnGRP7 (Arabidopsis thaliana / Brassica napus chimera) (UniProt Q03250); conditions: 25 mM Tris-HCl pH 8.0, 150 mM NaCl (150 mM LiCl for Sc1 LiCl), 1 mM DTT, 0.1 mg/ml BSA; 20 nM Cy5-RNA; about 2 min incubation; temperature not stated; low values mean tight binding
T1 sequence: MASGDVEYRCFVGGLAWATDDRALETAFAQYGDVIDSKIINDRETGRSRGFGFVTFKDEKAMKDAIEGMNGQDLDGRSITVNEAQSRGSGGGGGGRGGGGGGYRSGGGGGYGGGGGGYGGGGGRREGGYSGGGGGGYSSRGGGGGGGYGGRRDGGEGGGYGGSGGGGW

[10] = biological target: T2, AtGRP7 (Arabidopsis thaliana) (UniProt Q03250); conditions: 25 mM Tris-HCl pH 8.0, 150 mM NaCl (150 mM LiCl for Sc1 LiCl), 1 mM DTT, 0.1 mg/ml BSA; 20 nM Cy5-RNA; about 2 min incubation; temperature not stated; low values mean tight binding
T2 sequence: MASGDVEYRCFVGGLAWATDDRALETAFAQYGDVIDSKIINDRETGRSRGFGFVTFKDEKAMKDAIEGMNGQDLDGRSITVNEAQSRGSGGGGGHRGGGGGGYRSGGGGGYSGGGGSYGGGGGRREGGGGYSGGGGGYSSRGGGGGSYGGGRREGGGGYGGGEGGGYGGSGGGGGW

[11] = biological target: T3, AtGRP7StoE S132E;S139E (Arabidopsis thaliana) (UniProt Q03250); conditions: 25 mM Tris-HCl pH 8.0, 150 mM NaCl (150 mM LiCl for Sc1 LiCl), 1 mM DTT, 0.1 mg/ml BSA; 20 nM Cy5-RNA; about 2 min incubation; temperature not stated; low values mean tight binding
T3 sequence: T2 sequence with S132E, S139E

[12] = biological target: T4, AtGRP7StoG S132G;S139G (Arabidopsis thaliana) (UniProt Q03250); conditions: 25 mM Tris-HCl pH 8.0, 150 mM NaCl (150 mM LiCl for Sc1 LiCl), 1 mM DTT, 0.1 mg/ml BSA; 20 nM Cy5-RNA; about 2 min incubation; temperature not stated; low values mean tight binding
T4 sequence: T2 sequence with S132G, S139G

[13] = biological target: T5, AtGRP7YtoE Y103E;Y111E;Y118E;Y131E;Y138E;Y148E;Y159E;Y167E (Arabidopsis thaliana) (UniProt Q03250); conditions: 25 mM Tris-HCl pH 8.0, 150 mM NaCl (150 mM LiCl for Sc1 LiCl), 1 mM DTT, 0.1 mg/ml BSA; 20 nM Cy5-RNA; about 2 min incubation; temperature not stated; low values mean tight binding
T5 sequence: T2 sequence with Y103E, Y111E, Y118E, Y131E, Y138E, Y148E, Y159E, Y167E

[14] = biological target: T6, AtGRP7YtoG Y103G;Y111G;Y118G;Y131G;Y138G;Y148G;Y159G;Y167G (Arabidopsis thaliana) (UniProt Q03250); conditions: 25 mM Tris-HCl pH 8.0, 150 mM NaCl (150 mM LiCl for Sc1 LiCl), 1 mM DTT, 0.1 mg/ml BSA; 20 nM Cy5-RNA; about 2 min incubation; temperature not stated; low values mean tight binding
T6 sequence: T2 sequence with Y103G, Y111G, Y118G, Y131G, Y138G, Y148G, Y159G, Y167G

[15] = biological target: T7, BnGRP7 (Brassica napus) (UniProt A0A078J5Z4); conditions: 25 mM Tris-HCl pH 8.0, 150 mM NaCl (150 mM LiCl for Sc1 LiCl), 1 mM DTT, 0.1 mg/ml BSA; 20 nM Cy5-RNA; about 2 min incubation; temperature not stated; low values mean tight binding
T7 sequence: T1 sequence with G4P, A29S, Y31F, I35L, A61S

[16] = biological target: T8, eYFP-AtGRP7RGG (Arabidopsis thaliana) (UniProt Q03250); conditions: 25 mM Tris-HCl pH 8.0, 150 mM NaCl (150 mM LiCl for Sc1 LiCl), 1 mM DTT, 0.1 mg/ml BSA; 20 nM Cy5-RNA; about 2 min incubation; temperature not stated; low values mean tight binding
T8 sequence: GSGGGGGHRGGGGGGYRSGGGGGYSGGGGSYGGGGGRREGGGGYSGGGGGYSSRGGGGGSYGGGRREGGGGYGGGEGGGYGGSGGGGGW

[17] = biological target: T2, AtGRP7 (Arabidopsis thaliana); conditions: 25 mM Tris-HCl pH 8.0, 150 mM NaCl (150 mM LiCl for Sc1 LiCl), 1 mM DTT, 0.1 mg/ml BSA; 20 nM Cy5-RNA; about 2 min incubation; temperature not stated; low values mean tight binding; remark: listed apart in the source
[18] = biological target: T9, AtGRP7short (Arabidopsis thaliana) (UniProt Q03250); conditions: 25 mM Tris-HCl pH 8.0, 150 mM NaCl (150 mM LiCl for Sc1 LiCl), 1 mM DTT, 0.1 mg/ml BSA; 20 nM Cy5-RNA; about 2 min incubation; temperature not stated; low values mean tight binding
T9 sequence: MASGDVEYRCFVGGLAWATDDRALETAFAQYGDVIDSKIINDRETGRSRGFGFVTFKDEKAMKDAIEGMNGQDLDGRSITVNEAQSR

BnPARCL CDS RNA
pKd [1]: 7.00 | pKd [2]: 5.39

AtCOR15A pre-mRNA
pKd [3]: 6.13 | pKd [1]: 6.82 | pKd [4]: 6.13 | pKd [5]: 5.65 | pKd [6]: 5.43 | pKd [7]: 6.49

AtGRP7 3'UTR fragment (7-UTR-WT)
pKd [1]: 6.80 | pKd [8]: 7.51

GGAUGGCGUCCGGUGAUGUUGAGUAUCGGUGCUUCGUUGGAGGUCUAGCAUGGGCCACUGAUGACAGAGCUCUUGAGACUGCCUUCGCUCAAUACGGCGACGUUAUUGAUUCCAAGAUCAUUAACGAUCGUGAGACUGGAAGAUCAAGGGGAUUCGGAUUCGUCACCUUCAAGGAUGAGAAAGCCAUGAAGGAUGCGAUUGAGGGAAUGAACGGACAAGAUCUCGAUGGCCGUAGCAUCACUGUUAACGAGGCUCAGUCACGAGGAAGCGGUGGCGGCGGAGGCCACCGUGGAGGUGGUGGCGGUGGAUACCGCAGCGGCGGUGGUGGAGGUUACUCCGGUGGAGGUGGUAGCUACGGAGGUGGCGGCGGUAGACGCGAGGGUGGAGGAGGAUACAGCGGCGGCGGCGGCGGUUACUCCUCAAGAGGUGGUGGUGGCGGAAGCUACGGUGGUGGAAGACGUGAGGGAGGAGGAGGAUACGGUGGUGGUGAAGGAGGAGGUUACGGAGGAAGCGGUGGUGGUGGAGGAUGGUAA [AtGRP7]
pKd [9]: 6.97 | pKd [10]: 6.74 | pKd [11]: 6.27 | pKd [12]: 5.93 | pKd [13]: 5.27 | pKd [14]: 5.13 | pKd [15]: 5.43 | pKd [16]: 5.82

GCUGCGGUGUGGAAGGAGUGGUCGGGUUGCGCAGCG [Sc1 G-quadruplex RNA]
pKd [10]: 5.16 | pKd [17]: 6.33

miR164
pKd [1]: 7.38 | pKd [2]: 5.23 | pKd [7]: 7.68

AtGRP7 CDS RNA
pKd [1]: 6.74 | pKd [8]: 5.68

AUUUUGUUCUGGUUCUGCUUUAGAUUUGAUGU [AtGRP7 3'UTR fragment (7-UTR-WT, 32 nt)]
pKd [9]: 7.74 | pKd [10]: 6.80 | pKd [11]: 7.14 | pKd [12]: 7.28 | pKd [13]: 6.15 | pKd [14]: 6.45 | pKd [18]: 4.91 | pKd [15]: 7.77 | pKd [16]: 7.51
